Measurements as given in patent US20090016988.

Legend:
[1] = system: wild-type proaerolysin from Aeromonas hydrophila
[2] = system: MPPT5 (proaerolysin with the MMP2 site HPVGLLAR joined by a GG linker to the uPA site SGRSAQ in the)
[3] = system: MPPT1 (proaerolysin with the furin site KVRRAR replaced by the uPA site SGRSAQ, and a His tag)
[4] = system: MPPT4 (proaerolysin with the activation sequence KVRRAR changed to the MMP2 site HPVGLLAR, 6xHis tag)

Substance: urokinase-type plasminogen activator (uPA)
- Hemolytic titer after uPA digestion (hemolytic titer (wells with lysed cells)) [1]: 5
- Hemolytic titer, 0.016 mg/mL uPA (hemolytic titer (wells with lysed cells)) [1]: 0
- Hemolytic titer, 0.04 mg/mL uPA (hemolytic titer (wells with lysed cells)) [1]: 2.5
- Hemolytic titer, 0.08 mg/mL uPA (hemolytic titer (wells with lysed cells)) [1]: 6
- activation by uPA digestion (Coomassie stained SDS-PAGE) [1]: No activated aerolysin band, and only a very faint high molecular weight oligomer band, was seen for the PA sample digested with 1 µg of uPA
- conversion to aerolysin by 0.016 mg/mL uPA (SDS-PAGE) [1]: No PA was converted to aerolysin when treated with 0.016 mg/mL uPA under these conditions
- digestion with uPA, 2 hours (silver stained SDS-PAGE) [1]: it is somewhat sensitive to uPA, though not to the degree seen for MPPT5
- digestion with uPA, 120 minutes (Coomassie stained SDS-PAGE) [1]: whereas much less PA was activated
- Hemolytic titer after uPA digestion (hemolytic titer (wells with lysed cells)) [2]: 7
- Hemolytic titer, 0.016 mg/mL uPA (hemolytic titer (wells with lysed cells)) [3]: 6
- Hemolytic titer, 0.04 mg/mL uPA (hemolytic titer (wells with lysed cells)) [3]: 7.5
- Hemolytic titer, 0.08 mg/mL uPA (hemolytic titer (wells with lysed cells)) [3]: 7.5
- activation by uPA digestion (Coomassie stained SDS-PAGE) [3]: the MPPT1 sample digested with 1 µg of uPA showed an activated aerolysin band (˜48 kDa; lowest band), and a high molecular weight oligomer band
- conversion to aerolysin by 0.016 mg/mL uPA (SDS-PAGE) [3]: MPPT1 was nearly 50% converted
- digestion with uPA, 120 minutes (Coomassie stained SDS-PAGE) [3]: After 120 minutes, the MPPT1 is almost completely activated by 0.04 mg/mL uPA

Substance: active MMP2 protease (EMD/Calbiochem)
- Hemolytic titer after MMP2 digestion (hemolytic titer (wells with lysed cells)) [1]: 0
- digestion with MMP2 (Western blot, 48 hour incubation samples) [1]: less than 50% digestion for PA
- digestion with MMP2, 2 hours (silver stained SDS-PAGE) [1]: PA is not measurably affected by MMP2
- digestion with MMP2, 24 hours (silver stained SDS-PAGE) [1]: a small amount of digestion for PA
- Hemolytic titer after MMP2 digestion (hemolytic titer (wells with lysed cells)) [2]: 6.5
- digestion with MMP2 (Western blot, 48 hour incubation samples) [4]: complete digestion for MPPT4
- digestion with MMP2, 24 hours (silver stained SDS-PAGE) [4]: complete digestion for MPPT4 for all concentrations shown
